To fix the notation:
T1: human fibrinogen (human, UniProt P02671 20-629; P02675 31-491; P02679 27-437)
T1 construct: also called Fg; intact Fg
T1 sequence 1: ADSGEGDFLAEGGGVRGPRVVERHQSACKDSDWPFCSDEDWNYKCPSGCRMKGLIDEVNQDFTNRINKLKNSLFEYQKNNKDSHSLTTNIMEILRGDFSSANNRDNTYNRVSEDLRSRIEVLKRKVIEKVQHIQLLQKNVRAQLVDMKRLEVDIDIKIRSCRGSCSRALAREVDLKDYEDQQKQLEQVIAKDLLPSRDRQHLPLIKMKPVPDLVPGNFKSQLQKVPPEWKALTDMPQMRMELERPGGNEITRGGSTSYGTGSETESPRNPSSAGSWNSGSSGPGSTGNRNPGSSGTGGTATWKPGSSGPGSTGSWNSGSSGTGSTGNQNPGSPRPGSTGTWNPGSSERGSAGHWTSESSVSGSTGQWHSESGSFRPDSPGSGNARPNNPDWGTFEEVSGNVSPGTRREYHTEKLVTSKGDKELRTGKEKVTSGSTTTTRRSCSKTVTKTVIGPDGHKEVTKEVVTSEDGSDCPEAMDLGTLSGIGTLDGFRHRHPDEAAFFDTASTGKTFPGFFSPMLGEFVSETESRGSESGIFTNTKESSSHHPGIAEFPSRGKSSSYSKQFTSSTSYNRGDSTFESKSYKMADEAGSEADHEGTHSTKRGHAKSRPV
T1 sequence 2: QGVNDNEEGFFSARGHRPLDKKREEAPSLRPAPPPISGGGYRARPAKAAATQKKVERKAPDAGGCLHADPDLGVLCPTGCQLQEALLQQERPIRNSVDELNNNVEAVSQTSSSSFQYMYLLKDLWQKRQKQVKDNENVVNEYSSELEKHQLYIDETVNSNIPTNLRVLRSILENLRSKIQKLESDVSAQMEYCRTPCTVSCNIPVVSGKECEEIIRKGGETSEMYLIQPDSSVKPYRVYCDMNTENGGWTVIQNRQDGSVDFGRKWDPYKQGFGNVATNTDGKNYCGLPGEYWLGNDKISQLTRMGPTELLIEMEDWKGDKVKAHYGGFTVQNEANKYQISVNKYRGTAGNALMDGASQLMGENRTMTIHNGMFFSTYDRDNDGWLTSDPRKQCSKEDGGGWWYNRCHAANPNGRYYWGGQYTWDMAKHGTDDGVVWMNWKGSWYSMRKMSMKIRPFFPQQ
T1 sequence 3: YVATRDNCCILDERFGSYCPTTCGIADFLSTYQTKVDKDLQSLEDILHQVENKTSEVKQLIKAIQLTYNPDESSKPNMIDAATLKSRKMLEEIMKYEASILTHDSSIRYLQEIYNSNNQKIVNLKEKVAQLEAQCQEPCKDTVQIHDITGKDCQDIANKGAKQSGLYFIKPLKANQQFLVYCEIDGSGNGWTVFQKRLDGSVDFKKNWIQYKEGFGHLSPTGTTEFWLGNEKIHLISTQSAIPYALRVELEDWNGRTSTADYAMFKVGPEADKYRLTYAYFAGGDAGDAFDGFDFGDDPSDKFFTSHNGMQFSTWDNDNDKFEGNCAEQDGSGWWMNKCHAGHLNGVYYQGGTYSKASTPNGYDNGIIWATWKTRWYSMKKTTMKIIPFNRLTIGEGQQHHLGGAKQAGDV

T2: Fg D-fragment (UniProt P02671 130-216; P02675 164-491; P02679 114-437)
T2 construct: domain: D-fragment; also called D-domain
T2 sequence 1: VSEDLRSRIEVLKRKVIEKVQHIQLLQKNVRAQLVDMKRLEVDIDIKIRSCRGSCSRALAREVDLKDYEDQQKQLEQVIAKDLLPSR
T2 sequence 2: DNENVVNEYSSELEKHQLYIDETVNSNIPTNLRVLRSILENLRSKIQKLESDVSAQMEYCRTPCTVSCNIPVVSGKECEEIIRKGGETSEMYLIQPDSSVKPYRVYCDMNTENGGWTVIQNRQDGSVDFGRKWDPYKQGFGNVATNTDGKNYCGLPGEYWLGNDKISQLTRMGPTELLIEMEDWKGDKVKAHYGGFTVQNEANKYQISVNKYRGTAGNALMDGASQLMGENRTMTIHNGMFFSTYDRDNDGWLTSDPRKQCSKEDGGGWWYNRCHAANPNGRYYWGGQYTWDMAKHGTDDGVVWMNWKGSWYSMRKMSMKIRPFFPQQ
T2 sequence 3: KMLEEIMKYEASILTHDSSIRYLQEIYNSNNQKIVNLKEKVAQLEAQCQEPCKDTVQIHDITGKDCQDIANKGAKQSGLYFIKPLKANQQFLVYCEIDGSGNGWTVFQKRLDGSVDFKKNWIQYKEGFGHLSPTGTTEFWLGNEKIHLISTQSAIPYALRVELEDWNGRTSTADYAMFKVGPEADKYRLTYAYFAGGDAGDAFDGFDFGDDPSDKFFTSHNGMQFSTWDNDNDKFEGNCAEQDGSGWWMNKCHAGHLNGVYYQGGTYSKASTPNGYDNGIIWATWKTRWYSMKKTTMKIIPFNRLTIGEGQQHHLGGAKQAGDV

T3: ClfACC (S. aureus, UniProt Q53653 229-545, engineered disulfide bond between C327 and C541)
T3 construct: also called disulfide bond-closed ClfACC; closed form of ClfA N2N3
T3 sequence: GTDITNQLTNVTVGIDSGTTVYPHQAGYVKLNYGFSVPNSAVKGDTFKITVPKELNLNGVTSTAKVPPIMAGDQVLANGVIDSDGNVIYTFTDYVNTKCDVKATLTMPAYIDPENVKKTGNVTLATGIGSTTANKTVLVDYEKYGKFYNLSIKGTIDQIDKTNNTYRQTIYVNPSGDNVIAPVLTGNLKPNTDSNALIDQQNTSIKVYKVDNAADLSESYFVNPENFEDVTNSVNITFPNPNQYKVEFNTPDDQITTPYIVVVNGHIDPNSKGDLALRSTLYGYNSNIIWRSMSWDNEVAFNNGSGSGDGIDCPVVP

B1: ClfA370-559 (other)
chain: EKYGKFYNLSIKGTIDQIDKTNNTYRQTIYVNPSGDNVIAPVLTGNLKPNTDSNALIDQQNTSIKVYKVDNAADLSESYFVNPENFEDVTNSVNITFPNPNQYKVEFNTPDDQITTPYIVVVNGHIDPNSKGDLALRSTLYGYNSNIIWRSMSWDNEVAFNNGSGSGDGIDKPVVPEQPDEPGEIEPIPE
notes: also called recombinant form of N3
B2: synthetic C-terminal γ-chain peptide (peptide)
peptide: GEGQQHHLGGAKQAGDV
notes: domain: C-terminal γ-chain peptide; also called Fg γ-peptide; synthetic Fg γ-peptide
B3: Fg γ-peptide P16 (peptide)
peptide: GEGQQHHLGGAKQAGAV
notes: domain: γ-peptide; Position 410 probably counts on the mature γ-chain; also called P16 peptide; Fg-γ P16 peptide
B4: ClfAPWY (other)
chain: VAADAPAAGTDITNQLTNVTVGIDSGTTVYPHQAGYVKLNYGFSVPNSAVKGDTFKITVPKELNLNGVTSTAKVPPIMAGDQVLANGVIDSDGNVIYTFTDYVNTKDDVKATLTMPAYIDPENVKKTGNVTLATGIGSTTANKTVLVDYEKYGKFYNLSIKGTIDQIDKTNNTYRQTIYVNPSGDNVIAPVLTGNLKPNTDSNALIDQQNTSIKVYKVDNAADLSESYFVNPENFEDVTNSVNITFANPNQYKVEFNTPDDQITTPYIVVVNGHIDPNSKGDLALRSTLYGANSNIIARSMSWDNEVAFNNGSGSGDGIDKPVVPEQPDEPGEIEPIPE
notes: also called triple mutant

The target of assay [1] is T1, human fibrinogen. Put plainly: SPR (Biacore), drawn table Ligand/analyte: fibrinogen immobilized, ClfA N3 domain (ClfA370-559) as analyte.
The target in assay [2] is T1, human fibrinogen. Kind of assay: SPR; immobilized Fg against γ-peptide.
The target of assay [3] is T2, Fg D-fragment. Put plainly: SPR; immobilized Fg D-fragment against γ-peptide.
For assay [4], the target named is T2, Fg D-fragment. Put plainly: SPR (Biacore), drawn table Ligand/analyte: Fg D-fragment immobilized, ClfA N3 domain (ClfA370-559) as analyte.
Assay [5] addresses T3, ClfACC. Kind of assay: ITC; peptide titrated into a cell containing ClfACC; the unit is missing in the print; γ-chain peptide titrated into ClfACC.
In assay [6] the target is T3, ClfACC. Put plainly: ITC, peptide titrated into ClfACC (paragraph 56 gives this KD as '9' without a unit and calls the peptide a synthetic C-terminal γ-chain peptide; the sheet names it P16).
In the assay “ClfAPWY” the target is B4. Put plainly: ITC; 0.5 mM P16 injected into 30 µM ClfAPWY, 30 °C; ITC, P16 peptide.
Assay [7] concerns the target T2, Fg D-fragment. Put plainly: SPR; immobilized D-fragment; estimated; SPR, D-fragment, estimated, data not shown.
The target in assay [8] is B3. Put plainly: ITC, 0.5 mM P16 peptide injected into 30 µM ClfAPWY; OneSites fit box.
In assay [9] the target is T1, human fibrinogen. Put plainly: SPR; immobilized Fg; estimated; SPR, Fg, estimated, data not shown.
Assay [10] concerns the target B3. Kind of assay: ITC, 0.5 mM P16 peptide injected into 30 µM ClfAPWY; OneSites fit box, unit not given.

B1: the Kd with human fibrinogen [1] was 5.9 µM; with Fg D-fragment [4] it was 6.9 µM. Moreover, the “fold lower KD than for the γ-peptide” value with human fibrinogen [2] and with Fg D-fragment [3] was roughly 10 fold each time.

B2: the dissociation constant Kd with ClfACC [5] turned out to be 9 µM.

Consider B3, for which the Kd with ClfACC [6] is 9 µM; with ClfAPWY, roughly 5.8 µM.

As for B4, the Kd in the assay with Fg D-fragment [7] is 17 µM. The molecule also showed a N with Fg γ-peptide P16 [8] of 1.23. Further, the Kd in the assay with human fibrinogen [9] is 10 µM. In the assay with Fg γ-peptide P16 [10], the ΔH was -6790 and the ΔS came to 1.59.

Values taken from US20180369355A1 (TEXAS A AND M UNIVERSITY SYSTEM, published 2018).
